Measurements published in patent US20220010021A1 (Sanofi, published 2022).

Biological target: human FGFR1c + KLB receptor complex on HEK293 iLite FGF21 reporter cells (human, UniProt P11362 22-822; Q86Z14 1-1044)
Experiment: cell-based or functional assay

Chain of human FGFR1c + KLB receptor complex on HEK293 iLite FGF21 reporter cells (P11362 22-822, chain 1 of 2): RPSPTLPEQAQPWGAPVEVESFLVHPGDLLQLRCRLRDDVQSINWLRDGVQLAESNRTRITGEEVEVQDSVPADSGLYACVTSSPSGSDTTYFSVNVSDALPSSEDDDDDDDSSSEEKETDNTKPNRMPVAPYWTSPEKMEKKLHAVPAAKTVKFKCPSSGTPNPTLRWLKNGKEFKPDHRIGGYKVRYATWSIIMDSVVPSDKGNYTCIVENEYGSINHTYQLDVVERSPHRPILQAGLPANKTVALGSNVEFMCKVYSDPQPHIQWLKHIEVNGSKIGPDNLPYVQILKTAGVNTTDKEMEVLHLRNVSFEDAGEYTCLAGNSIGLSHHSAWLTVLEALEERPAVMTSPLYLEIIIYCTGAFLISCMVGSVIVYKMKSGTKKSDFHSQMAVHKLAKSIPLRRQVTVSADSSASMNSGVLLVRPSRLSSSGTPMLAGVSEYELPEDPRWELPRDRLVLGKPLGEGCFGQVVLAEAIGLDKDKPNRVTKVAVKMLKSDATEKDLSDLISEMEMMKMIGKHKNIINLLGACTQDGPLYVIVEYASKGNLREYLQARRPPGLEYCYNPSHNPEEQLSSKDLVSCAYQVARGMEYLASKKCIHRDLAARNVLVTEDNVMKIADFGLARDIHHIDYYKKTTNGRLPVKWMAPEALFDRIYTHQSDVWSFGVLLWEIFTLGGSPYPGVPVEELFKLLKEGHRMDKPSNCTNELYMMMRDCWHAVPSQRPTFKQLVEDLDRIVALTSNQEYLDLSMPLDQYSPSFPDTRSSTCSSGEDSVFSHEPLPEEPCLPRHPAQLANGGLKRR
Chain of human FGFR1c + KLB receptor complex on HEK293 iLite FGF21 reporter cells (Q86Z14 whole entry, chain 2 of 2): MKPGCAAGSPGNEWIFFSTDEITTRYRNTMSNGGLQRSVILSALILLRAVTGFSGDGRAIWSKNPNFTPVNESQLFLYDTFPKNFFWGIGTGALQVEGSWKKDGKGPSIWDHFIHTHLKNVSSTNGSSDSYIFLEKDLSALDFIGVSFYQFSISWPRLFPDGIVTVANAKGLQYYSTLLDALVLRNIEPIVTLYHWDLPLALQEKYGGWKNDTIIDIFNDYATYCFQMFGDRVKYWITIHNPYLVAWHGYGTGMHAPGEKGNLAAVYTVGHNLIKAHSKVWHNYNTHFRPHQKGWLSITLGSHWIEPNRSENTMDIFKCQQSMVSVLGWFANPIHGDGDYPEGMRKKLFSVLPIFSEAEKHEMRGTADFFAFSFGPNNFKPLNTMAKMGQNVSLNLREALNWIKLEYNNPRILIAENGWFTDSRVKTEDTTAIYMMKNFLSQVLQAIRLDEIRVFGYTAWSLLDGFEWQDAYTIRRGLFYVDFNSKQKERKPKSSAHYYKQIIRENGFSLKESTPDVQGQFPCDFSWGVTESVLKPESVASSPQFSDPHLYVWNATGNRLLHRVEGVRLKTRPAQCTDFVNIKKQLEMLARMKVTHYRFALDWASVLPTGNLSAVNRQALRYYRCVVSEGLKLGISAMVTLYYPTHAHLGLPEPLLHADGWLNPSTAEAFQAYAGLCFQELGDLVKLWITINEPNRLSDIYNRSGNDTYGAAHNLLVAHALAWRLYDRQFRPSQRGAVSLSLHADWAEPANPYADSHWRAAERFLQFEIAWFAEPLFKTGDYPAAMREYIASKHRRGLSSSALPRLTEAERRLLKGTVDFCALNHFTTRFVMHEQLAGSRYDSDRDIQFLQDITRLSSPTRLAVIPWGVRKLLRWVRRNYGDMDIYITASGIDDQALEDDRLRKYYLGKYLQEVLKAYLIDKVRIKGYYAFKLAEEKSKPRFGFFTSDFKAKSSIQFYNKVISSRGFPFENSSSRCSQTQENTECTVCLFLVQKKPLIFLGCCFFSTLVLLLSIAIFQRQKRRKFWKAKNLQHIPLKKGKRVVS

EC50 [nM] | Emax [%] | Binder
0.04 | 1090 | Ab0331 (antibody, human IgG4 S228P, lambda) heavy: not shown light: SYVLTQPPSVSVAPGQTARITCGGSNIGSESVHWYQQKPGQAPVLVVYSESDRPSGIPERFSGSNSGNTATLTISRVEAGDEADYYCQVWEGESDHVVFGGGTKLTVLGQPKANPTVTLFPPSSEELQANKATLVCLISDFYPGAVTVAWKADGSPVKAGVETTKPSKQSNNKYAASSYLSLTPEQWKSHRSYSCQVTHEGSTVEKTVAPTECS
0.04 | 1220 | Ab0335 (antibody, human IgG4 S228P, lambda) heavy: not shown light: SYVLTQPPSVSVAPGQTARITCGGSNIGSESVHWYQQKPGQAPVLVVYSASDRPSGIPERFSGSNSGNTATLTISRVEAGDEADYYCQVWEGESDHVVFGGGTKLTVLGQPKANPTVTLFPPSSEELQANKATLVCLISDFYPGAVTVAWKADGSPVKAGVETTKPSKQSNNKYAASSYLSLTPEQWKSHRSYSCQVTHEGSTVEKTVAPTECS
0.03 | 1040 | Ab0351 (antibody, human IgG4 S228P, lambda) heavy: not shown light: SYVLTQPPSVSVAPGQTARITCGGSNIGSESVHWYQQKPGQAPVLVVYEESDRPSGIPERFSGSNSGNTATLTISRVEAGDEADYYCQVWEGESDHVVFGGGTKLTVLGQPKANPTVTLFPPSSEELQANKATLVCLISDFYPGAVTVAWKADGSPVKAGVETTKPSKQSNNKYAASSYLSLTPEQWKSHRSYSCQVTHEGSTVEKTVAPTECS
> 100 |  | Ab0402 (antibody, IgG4, V domains shown) VH: QVTLKESGPVLVKPTETLTLTCTVSGFSLNNARVGVSWIRQPPGKALEWLAWIFSNDEKSYSTSLKSRLTISKDTSKSQVVLTMTNMDPVDTATYYCARSVVTGGYYYEGMDVWGQGTTVTVSS VL: SYVLTQPPSVSVAPGQTARITCGGNNIGSESVHWYQQKPGQAPVLVVDDSDRPSGIPERFSGSNSGNTATLTISRVEAGDEADYYCQVFDGNCACVVFGGGTKLTVLG
0.24 | 695 | Ab0347 (antibody, IgG4, V domains shown) VH: QVTLKESGPVLVKPTETLTLTCTVSGFSLNNARVGVSWIRQPPGKALEWLAHIFSNDEKSYSTSLKSRLTISKDTSKSQVVLTMTNMDPVDTATYYCARSVVTGGYYYEGMDVWGQGTTVTVSS VL: SYVLTQPPSVSVAPGQTARITCGGSNIGSESVHWYQQKPGQAPVLVVYASSDRPSGIPERFSGSNSGNTATLTISRVEAGDEADYYCQVWAGSSDHVVFGGGTKLTVLG
2.91 | 576 | Ab0336 (antibody, IgG4, V domains shown) VH: QVTLKESGPVLVKPTETLTLTCTVSGFSLNNARVGVSWIRQPPGKALEWLAHIFSNDEKSYSTSLKSRLTISKDTSKSQVVLTMTNMDPVDTATYYCARSVVTGGYYYEGMDVWGQGTTVTVSS VL: SYVLTQPPSVSVAPGQTARITCGGSNIGSESVHWYQQKPGQAPVLVVYSHSDRPSGIPERFSGSNSGNTATLTISRVEAGDEADYYCQVWAGSSDHVVFGGGTKLTVLG
4.11 | 421 | Ab0328 (antibody, IgG4, V domains shown) VH: QVTLKESGPVLVKPTETLTLTCTVSGFSLNNARVGVSWIRQPPGKALEWLAHIFSNDEKSYSTSLKSRLTISKDTSKSQVVLTMTNMDPVDTATYYCARSVVTGGYYYEGMDVWGQGTTVTVSS VL: SYVLTQPPSVSVAPGQTARITCGGSNIGSESVHWYQQKPGQAPVLVVYYASDRPSGIPERFSGSNSGNTATLTISRVEAGDEADYYCQVWAGSSDHVVFGGGTKLTVLG
0.34 | 775 | Ab0342 (antibody, IgG4, V domains shown) VH: QVTLKESGPVLVKPTETLTLTCTVSGFSLNNARVGVSWIRQPPGKALEWLAHIFSNDEKSYSTSLKSRLTISKDTSKSQVVLTMTNMDPVDTATYYCARSVVTGGYYYEGMDVWGQGTTVTVSS VL: SYVLTQPPSVSVAPGQTARITCGGSNIGSESVHWYQQKPGQAPVLVVYAASDRPSGIPERFSGSNSGNTATLTISRVEAGDEADYYCQVWAGESDHVVFGGGTKLTVLG
4.59 | 443 | Ab0329 (antibody, IgG4, V domains shown) VH: QVTLKESGPVLVKPTETLTLTCTVSGFSLNNARVGVSWIRQPPGKALEWLAHIFSNDEKSYSTSLKSRLTISKDTSKSQVVLTMTNMDPVDTATYYCARSVVTGGYYYEGMDVWGQGTTVTVSS VL: SYVLTQPPSVSVAPGQTARITCGGSNIGSESVHWYQQKPGQAPVLVVYYSSDRPSGIPERFSGSNSGNTATLTISRVEAGDEADYYCQVWAGSSDHVVFGGGTKLTVLG
0.53 | 641 | Ab0348 (antibody, IgG4, V domains shown) VH: QVTLKESGPVLVKPTETLTLTCTVSGFSLNNARVGVSWIRQPPGKALEWLAHIFSNDEKSYSTSLKSRLTISKDTSKSQVVLTMTNMDPVDTATYYCARSVVTGGYYYEGMDVWGQGTTVTVSS VL: SYVLTQPPSVSVAPGQTARITCGGSNIGSESVHWYQQKPGQAPVLVVYEESDRPSGIPERFSGSNSGNTATLTISRVEAGDEADYYCQVWTGESDHVVFGGGTKLTVLG
2.16 | 545 | Ab0339 (antibody, IgG4, V domains shown) VH: QVTLKESGPVLVKPTETLTLTCTVSGFSLNNARVGVSWIRQPPGKALEWLAHIFSNDEKSYSTSLKSRLTISKDTSKSQVVLTMTNMDPVDTATYYCARSVVTGGYYYEGMDVWGQGTTVTVSS VL: SYVLTQPPSVSVAPGQTARITCGGSNIGSESVHWYQQKPGQAPVLVVYAESDRPSGIPERFSGSNSGNTATLTISRVEAGDEADYYCQVWAGSSDHVVFGGGTKLTVLG
1.02 | 718 | Ab0334 (antibody, IgG4, V domains shown) VH: QVTLKESGPVLVKPTETLTLTCTVSGFSLNNARVGVSWIRQPPGKALEWLAHIFSNDEKSYSTSLKSRLTISKDTSKSQVVLTMTNMDPVDTATYYCARSVVTGGYYYEGMDVWGQGTTVTVSS VL: SYVLTQPPSVSVAPGQTARITCGGSNIGSESVHWYQQKPGQAPVLVVYSASDRPSGIPERFSGSNSGNTATLTISRVEAGDEADYYCQVWAGSSDHVVFGGGTKLTVLG
1.37 | 482 | Ab0343 (antibody, IgG4, V domains shown) VH: QVTLKESGPVLVKPTETLTLTCTVSGFSLNNARVGVSWIRQPPGKALEWLAHIFSNDEKSYSTSLKSRLTISKDTSKSQVVLTMTNMDPVDTATYYCARSVVTGGYYYEGMDVWGQGTTVTVSS VL: SYVLTQPPSVSVAPGQTARITCGGSNIGSESVHWYQQKPGQAPVLVVYAASDRPSGIPERFSGSNSGNTATLTISRVEAGDEADYYCQVWAGSSDHVVFGGGTKLTVLG
1.4 | 528 | Ab0341 (antibody, IgG4, V domains shown) VH: QVTLKESGPVLVKPTETLTLTCTVSGFSLNNARVGVSWIRQPPGKALEWLAHIFSNDEKSYSTSLKSRLTISKDTSKSQVVLTMTNMDPVDTATYYCARSVVTGGYYYEGMDVWGQGTTVTVSS VL: SYVLTQPPSVSVAPGQTARITCGGSNIGSESVHWYQQKPGQAPVLVVYAYSDRPSGIPERFSGSNSGNTATLTISRVEAGDEADYYCQVWAGSSDHVVFGGGTKLTVLG
2.25 | 532 | Ab0346 (antibody, IgG4, V domains shown) VH: QVTLKESGPVLVKPTETLTLTCTVSGFSLNNARVGVSWIRQPPGKALEWLAHIFSNDEKSYSTSLKSRLTISKDTSKSQVVLTMTNMDPVDTATYYCARSVVTGGYYYEGMDVWGQGTTVTVSS VL: SYVLTQPPSVSVAPGQTARITCGGSNIGSESVHWYQQKPGQAPVLVVYAHSDRPSGIPERFSGSNSGNTATLTISRVEAGDEADYYCQVWAGSSDHVVFGGGTKLTVLG
> 100 |  | Ab0405 (antibody, IgG4, V domains shown) VH: QVTLKESGPVLVKPTETLTLTCTVSGFSLNNARVGVSWIRQPPGKALEWLASIWSNDEKSYSTSLKSRLTISKDTSKSQVVLTMTNMDPVDTATYYCARSVVTGGYYYEGMDVWGQGTTVTVSS VL: SYVLTQPPSVSVAPGQTARITCGGNNIGSESVHWYQQKPGQAPVLVVDDSDRPSGIPERFSGSNSGNTATLTISRVEAGDEADYYCQVFDGNSTHVVFGGGTKLTVLG
> 100 |  | Ab0403 (antibody, IgG4, V domains shown) VH: QVTLKESGPVLVKPTETLTLTCTVSGFSLNNARVGVSWIRQPPGKALEWLAWIFSNDEKSYSTSLKSRLTISKDTSKSQVVLTMTNMDPVDTATYYCARSVVTGGYYYEGMDVWGQGTTVTVSS VL: CYVLTQPPSVSVAPGQTARITCGGNNIGSESVHWYQQKPGQAPVLVVDDSDRPSGIPERFSGSNSGNTATLTISRVEAGDEADYYCQVFDGNCAHVVFGGGTKLTVLG
> 100 |  | Ab0404 (antibody, IgG4, V domains shown) VH: QVTLKESGPVLVKPTETLTLTCTVSGFSLNNARVGVSWIRQPPGKALEWLAHIWSNDEKSYSTSLKSRLTISKDTSKSQVVLTMTNMDPVDTATYYCARSVVTGGYYYEGMDVWGQGTTVTVSS VL: SYVLTQPPSVSVAPGQTARITCGGNNIGSESVHWYQQKPGQAPVLVVDDSDRPSGIPERFSGSNSGNTATLTISRVEAGDEADYYCQVFDGNSTHVVFGGGTKLTVLG
> 100 |  | Ab0410 (antibody, IgG4, V domains shown) VH: QVTLKESGPVLVKPTETLTLTCTVSGFSLNNARVGVSWIRQPPGKALEWLAHIFSNDEKSYSTSLKSRLTISKDTSKSQVVLTMTNMDPVDTATYYCARSVVTGGYYYEGMDVWGQGTTVTVSS VL: SYVLTQPPSVSVAPGQTARITCGGNNIGSESVHWYQQKPGQAPVLVVDDSDRPSGIPERFSGSNSGNTATLTISRVEAGDEADYYCQVYDGNSSHVVFGGGTKLTVLG
> 100 |  | Ab0406 (antibody, IgG4, V domains shown) VH: QVTLKESGPVLVKPTETLTLTCTVSGFSLNNARVGVSWIRQPPGKALEWLASIWSNDEKSYSTSLKSRLTISKDTSKSQVVLTMTNMDPVDTATYYCARSVVTGGYYYEGMDVWGQGTTVTVSS VL: CYVLTQPPSVSVAPGQTARITCGGNNIGSESVHWYQQKPGQAPVLVVDDSDRPSGIPERFSGSNSGNTATLTISRVEAGDEADYYCQVFDGNCTHVVFGGGTKLTVLG
> 100 |  | Ab0408 (antibody, IgG4, V domains shown) VH: QVTLKESGPVLVKPTETLTLTCTVSGFSLNNARVGVSWIRQPPGKALEWLAWIFSNDEKSYSTSLKSRLTISKDTSKSQVVLTMTNMDPVDTATYYCARSVVTGGYYYEGMDVWGQGTTVTVSS VL: SYVLTQPPSVSVAPGQTARITCGGNNIGSESVHWYQQKPGQAPVLVVDDSDRPSGIPERFSGSNSGNTATLTISRVEAGDEADYYCQVFDGNSTHVVFGGGTKLTVLG
